Results on one substance are retold here after PMC10503714.

As a reminder, the stoichiometry N is the number of molecules, sites or subunits per partner or assembly.

For this assay, the target named is stressed NISTmAb monoclonal antibody. Nature of the assay: AUC; sedimentation velocity at 50,000 rpm and 20°C; c(s) analysis in SEDFIT, by command line operation and repeated by manual operation on the same data; stressed, partially denatured sample.

As to stressed NISTmAb monoclonal antibody, the percent of signal in higher aggregates (command line analysis) was 51.8%, the percent of signal in higher aggregates (manual analysis) was 51.7%, the percent of signal in the dimer peak amounted to 12.5% and the stoichiometry N was determined as 2.
